The results in this text go back to PMC4227782.

The data set has as its target T1, MBNL1 (2-260) (UniProt Q9NR56).
T1 sequence: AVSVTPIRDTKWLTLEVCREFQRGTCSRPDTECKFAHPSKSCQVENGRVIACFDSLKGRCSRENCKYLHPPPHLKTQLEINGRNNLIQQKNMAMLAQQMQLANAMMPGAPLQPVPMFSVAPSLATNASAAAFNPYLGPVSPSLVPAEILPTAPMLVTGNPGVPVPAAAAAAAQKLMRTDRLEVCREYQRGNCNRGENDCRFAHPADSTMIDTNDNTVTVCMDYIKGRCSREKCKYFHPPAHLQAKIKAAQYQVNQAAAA
Nature of the data set: EMSA. The following applies: 5 mM Mg2+, 0.1 mg/ml heparin, 175 mM NaCl, 20 mM Tris pH 7.5, 1 mM BME, 10% glycerol, 5 mM MgCl2, 0.1 mg/ml heparin, 2 mg/ml BSA, 0.02% xylene cyanol, 0.05% bromophenol blue, 20 min at room …. In general terms: In EMSA bound probe runs differently from free probe, usually more slowly.

For CUGCUGCUGCUG [1-2'Ome(CUG)4], where the note is “1 2'-O-methyl, position only in Fig 1B”, the Kd worked out at 0.65 µM.

With CUGCUGCUGCUG [1Ψ(CUG)4], the Kd (1 pseudouridine replacing U, position only in Fig 1B) amounted to 1 µM.

Take CUGCUGCUGCUG [2-2'Ome(CUG)4]: for the setting “2 2'-O-methyl, positions only in Fig 1B”, the dissociation constant Kd stood at 0.89 µM.

CUGCUGCUGCUG [2Ψ(CUG)4]: where the note is “2 pseudouridines replacing U, positions only in Fig 1B”, the Kd turned out to be 6 µM.

In the case of CUGCUGCUGCUG [4-2'Ome(CUG)4], where the note is “4 2'-O-methyl, positions only in Fig 1B”, the Kd stood at 1 µM.

On to CUGCUGCUGCUG [4Ψ(CUG)4], for which the Kd (Kd immeasurable, 4 pseudouridines replacing U) is above 5 µM.

Consider CUGCUGCUGCUG [(CUG)4], for which the dissociation constant Kd was found to be 0.3 µM.

By Kd is commonly meant the concentration at which binding is half-saturated.
